Reference: PMC9616769
Ends that are not written are not given here. * marks the point of attachment. pNA = O=[N+]([O-])c1ccc(N*)cc1

Molecular target: NT-mini (catalytically competent fragment of human neurotrypsin, Gly497-Leu875) (human)

Km of cleavage of the pNa peptide by NT-mini (Michaelis-Menten; 1 µM enzyme, 37 °C, 5 mM CaCl2, GF buffer pH 8) [mM]	Binder
6.16	KGLVEK-pNA (also: termed β-peptide, meaning not given here) [β-peptide (6-mer, KGLVEK) with a C-terminal p-nitroaniline]
17.2	GLVEK-pNA (also: termed β-peptide, meaning not given here) [β-(5 mer) peptide with a C-terminal p-nitroaniline]
